Experimental data taken from patent US20190119357A1, “MESSENGER RIBONUCLEIC ACIDS FOR THE PRODUCTION OF INTRACELLULAR BINDING POLYPEPTIDES AND METHODS OF USE THEREOF” (ModernaTX, Inc., priority 2015, published 2019).
“Also recorded” adds a separate entry of the source.

How the values were obtained:
Hep3B cells [1] = assay: Anti-MCL1 mmRNA construct combined with SQT-PUMA-BH3, YOYO-3; assay type: cell-based; settings: 50 ng anti-MCL1 mRNA, 1.6 ng SQT-PUMA-BH3, L2K, 48 hours
Experimental: The anti-MCL1 mmRNA construct was tested for synergistic killing when combined with SQT-PUMA-BH3 in Hep3B cells. 20,000 Hep3B cells were seeded per well in 96-well plates. Each well was transfected with (a) 1.6 ng SQT-empty (“SQT-dummy”) or SQT-PUMA-BH3; and (b) 50 ng or 12.5 ng anti-MCL1 mRNA. Transfections of mRNA were done with Lipofectamine 2000 (L2K). After 48 hours, apoptosis measurements performed using YOYO-3 viability dye in an Incucyte instrument.

HeLa cells [2] = assay: PARP-1 cleavage by SDS-PAGE and Western blotting after transfection of mRNAs encoding SQT-BH3 constructs; assay type: cell-based
Source text: The cleavage of PARP-1 was detected by the appearance of a faster-migrating band and concomitant loss of the full-length band by SDS-PAGE and Western blotting. Western blotting with anti-actin antibodies served as a loading control.

BCL-XL = target: T1, BCL-XL (Homo sapiens, UniProt Q07817); assay: Co-immunoprecipitation after mRNA transfection; assay type: binding; settings: within two hours after mRNA transfection
T1 construct: endogenous in cells; host or cells: cells transfected with SQT-BH3 mRNA (HeLa by context)
T1 sequence (Q07817 whole entry): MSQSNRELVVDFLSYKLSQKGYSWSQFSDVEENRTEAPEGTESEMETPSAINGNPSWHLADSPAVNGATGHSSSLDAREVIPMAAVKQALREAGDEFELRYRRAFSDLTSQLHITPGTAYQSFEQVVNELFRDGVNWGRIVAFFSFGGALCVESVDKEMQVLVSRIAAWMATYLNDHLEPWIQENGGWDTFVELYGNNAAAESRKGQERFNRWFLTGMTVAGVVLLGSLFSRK

BCL-2 = target: T2, BCL-2 (Homo sapiens, UniProt P10415); assay: Co-immunoprecipitation after mRNA transfection; assay type: binding; settings: within two hours after mRNA transfection
T2 construct: endogenous in cells; host or cells: cells transfected with SQT-BH3 mRNA (HeLa by context)
T2 sequence (P10415 whole entry): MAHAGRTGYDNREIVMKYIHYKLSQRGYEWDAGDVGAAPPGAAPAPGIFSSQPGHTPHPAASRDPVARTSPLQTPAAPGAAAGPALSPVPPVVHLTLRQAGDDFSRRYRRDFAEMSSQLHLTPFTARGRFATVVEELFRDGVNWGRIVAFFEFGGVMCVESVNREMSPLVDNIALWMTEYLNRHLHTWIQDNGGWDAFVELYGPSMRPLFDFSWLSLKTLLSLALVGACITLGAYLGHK

HeLa cells [3] = assay: Long-term live cell imaging of GFP-positive cells after mRNA transfection; assay type: cell-based
Hep3B cells [4] = assay: Cell death by YOYO-3 with MC3-formulated LNPs; assay type: cell-based; settings: for apoptosis and cell death (YOYO-3): relatively high concentration
Experimental: The efficacy of mRNAs encoding SQT-BH3 constructs in inducing cell death was tested both in hepatocellular carcinoma cell lines as well as in primary hepatocytes using lipid nanoparticle (LNP)-formulated constructs. Hep3B cells were treated with varying doses (0.78 ng to 50 ng) of MC3-formulated LNPs in the presence of YOYO-3 (Life Technologies), a DNA dye that is taken up preferentially by dead cells that is used to measure the extent of cell death. MC3 lipid nanoparticles included MC3 50%, DSPC 10%, Cholesterol 38.5%, PEG-DMG 1.5%, N:P ˜5.5.

primary hepatocytes [5] = assay: Apoptosis induction by MC3 LNP-formulated mRNAs in primary hepatocytes cultured in vitro; assay type: cell-based; settings: for PARP-1 cleavage: LNPs
Hep3B cells [6] = assay: Sorafenib combination, YOYO-3 apoptosis on IncuCyte ZOOM; assay type: cell-based
Experimental: To determine the effect of SQT-BH3 constructs in combination with the protein tyrosine kinase inhibitor Sorafenib on liver cells, 20,000 Hep3B cells/well in a 96 well plate were treated with increasing amounts of sorafenib tosylate (Selleck Chemicals) and transfected with LNPs containing SQT-PUMA-BH3 (68 pM) or SQT-Bad-BH3 (550pM).

[7] = tested on: primary mouse hepatocytes; assay: Sorafenib combination in primary mouse hepatocytes; assay type: cell-based; settings: SQT-PUMA-BH3 205 pM or 1100 pM, SQT-Bad-BH3 549 pM or 1100 pM, sorafenib 0-10 uM
Experimental: Similar combination experiments were performed with primary mouse hepatocytes, treated with SQT-PUMA-BH3 (205 pM or 1100 pM) or SQT-Bad-BH3 (549 pM or 1100 pM) in combination with sorafenib (0-10 μM). […] Thus, normal primary liver cells are spared by the combination treatment, indicating the combination treatment can selectively kill liver cancer cells over normal liver cells.

Hep3B cells [8] = assay: SQT-BH3 in combination with siMCL1 or sorafenib, YOYO-3; assay type: cell-based; settings: 10 uM sorafenib tosylate, 24 hours after treatment
primary hepatocytes [9] = settings: 10uM sorafenib tosylate, 24 hours after treatment
Experimental: Controls were an empty SQT construct (“SQT-dummy”), a non-targeting siRNA and PBS. For treatment of Hep3B cells, 20,000 Hep3B cells/well per plated in 96-well plates. At Day 1, some wells were transfected with siMCL1 (Dharmacon, ON-TARGETplus Human MCL1 (4170) siRNA-SMARTpool, # L-004501-00-0005) or non-targeting siRNA (ON-TARGETplus Non-targeting Control Pool, # D-001810-10-05). […] 24 hours after treatment, YOYO®-3 iodide (Life Technologies) viability dye was added to each well and cell death was measured on an IncuCyte ZOOM® using YOYO-3 fluorescence as a readout (=“Apoptosis”). For treatment of primary hepatocytes, 18,000 mouse hepatocytes (Gibco) were seeded in each well of a 96-well plate. At Day 1, some wells were transfected with siMCL1 (Dharmacon, SMARTpool: ON-TARGETplus Mc11 siRNA, # L-062229-00-0005) or non-targeting siRNA (ON-TARGETplus Non-targeting Control Pool, # D-001810-10-05). […] 24 hours after treatment, Caspase 3/7 reagent (EssenBio) apoptosis dye was added to each well and cell death was measured on an IncuCyte ZOOM® using the caspase 3/7 reagent fluorescence as a readout (=“Apoptosis”).

MCL-1 = target: T3, MCL-1 (Homo sapiens, UniProt Q07820); assay: Co-immunoprecipitation in lysates of transfected HeLa cells; assay type: binding; settings: lysates of HeLa cells transfected with mRNAs
T3 construct: performed in lysates of HeLa cells transfected with mRNAs encoding SQT-BH3 constructs; endogenous in cells; host or cells: HeLa
T3 sequence (Q07820 whole entry): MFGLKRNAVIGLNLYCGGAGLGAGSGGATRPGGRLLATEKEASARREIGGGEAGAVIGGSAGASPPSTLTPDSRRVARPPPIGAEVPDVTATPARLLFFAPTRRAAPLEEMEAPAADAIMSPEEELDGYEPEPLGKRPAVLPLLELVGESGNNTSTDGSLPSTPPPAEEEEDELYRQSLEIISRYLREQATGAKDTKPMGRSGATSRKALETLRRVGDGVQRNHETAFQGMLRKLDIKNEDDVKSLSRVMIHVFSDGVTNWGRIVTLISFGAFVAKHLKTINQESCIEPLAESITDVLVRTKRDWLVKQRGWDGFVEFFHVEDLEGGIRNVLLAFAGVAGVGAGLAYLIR

[10] = tested on: human melanoma cells (A375); assay: Cell death after mRNA transfection; assay type: cell-based
[11] = tested on: human hepatocellular carcinoma (Hep G2) cells; assay: Cell death and morphology after mRNA transfection; assay type: cell-based
Source text: A representative graph of the apoptotic ability of the SQT-BH3 constructs is shown in FIG. 2, showing the cell killing capacity of the SQT-BH3 constructs in Hep G2 cells.

HepG2 cells = assay: Cell death by YOYO3 with MC3 LNPs; assay type: cell-based
HeLa cells [12] = assay: Efficiency of cell killing at low mRNA dose; assay type: cell-based; settings: approximately 0.78 ng mRNA
Hep3B cells [13] = assay: Efficiency of cell killing at low mRNA dose and dose-response; assay type: cell-based

B1: SQT.(nt)Mcl1.BH3.cv5: anti-MCL1 mmRNA construct, ORF amino acid SEQ ID NO: 108, nucleotide SEQ ID NO: 112, v5 tag (nucleic acid)
chain: ATGATCCCTAGGAAGGCCCTGGAGACCCTGAGGAGAGTGGGCGACGGAGTGCAGAGGAACCACGAGACCGCCTTCGGCCTGAGCGAGGCAAAGCCAGCAACACCCGAGATCCAGGAGATCGTGGATAAGGTGAAGCCCCAGCTGGAGGAGAAGACCAATGAGACATACGGCAAGCTGGAGGCCGTGCAGTATAAGACCCAGGTGCTGGCCTCCACAAACTACTATATCAAGGTGCGGGCCGGCGACAATAAGTACATGCACCTGAAGGTGTTCAACGGACCACCTGGACAGAATGCAGACAGGGTGCTGACCGGCTATCAGGTGGATAAGAACAAGGACGATGAGCTGACAGGCTTTGGCAAGCCAATCCCCAATCCTCTGCTGGGCCTGGATTCTACA
modifications: V5 tag; Synthetic SQT.(nt)Mcl1.BH3.cv5
apoptosis (YOYO-3) in combination with SQT-PUMA-BH3 (Hep3B cells [1]; listed as anti-MCL1 construct): synergistic anti-apoptotic effect in combination with SQT-PUMA-BH3
apoptosis (YOYO-3) in combination with SQT-PUMA-BH3 (Hep3B cells [1]; listed as anti-MCL1 mRNA construct): synergistic pro-apoptotic effects

B2: SQT-Bad-BH3: mRNA (SEQ ID NO: 51, FLAG) encoding SQT scaffold with Bad BH3 domain in N-terminus (nucleic acid)
chain: ATGATCCCAAGAAACCTGTGGGCTGCACAACGCTACGGAAGAGAACTGCGCCGGATGAGCGACGAATTTGTGGACTCGTTCAAGAAGGGGGGACTCTCAGAAGCGAAGCCTGCCACCCCCGAAATCCAGGAAATCGTCGACAAGGTCAAGCCGCAGCTTGAGGAAAAGACCAACGAGACTTACGGAAAACTGGAGGCCGTGCAGTATAAGACCCAAGTGTTGGCCTCCACCAACTACTACATTAAGGTCCGCGCCGGCGATAACAAGTACATGCACCTGAAGGTGTTCAATGGTCCTCCGGGACAGAACGCGGACAGGGTGCTGACTGGCTACCAAGTGGACAAGAACAAGGACGACGAGCTGACGGGCTTCGACTACAAGGATGATGATGACAAA
modifications: FLAG tag; Synthetic SQT-BAD-BH3 mRNA sequence with FLAG epitope tag
PARP-1 cleavage, extent (HeLa cells [2]; 4 hours after transfection): also induced PARP-1 cleavage, although to a lesser extent than SQT-PUMA-BH3 or SQT-Bim-BH3
interaction with BCL-XL by co-immunoprecipitation (BCL-XL): also able to co-immunoprecipitate BCL-XL and BCL-2, although to a lesser extent than SQT-PUMA-BH3 and SQT-Bim-BH3
interaction with BCL-2 by co-immunoprecipitation (BCL-2): also able to co-immunoprecipitate BCL-XL and BCL-2, although to a lesser extent than SQT-PUMA-BH3 and SQT-Bim-BH3
cell-killing activity (HeLa cells [3]): did not show cell-killing activity
apoptosis and cell death (YOYO-3) (Hep3B cells [4]): behaved similar to the empty MC3 LNP control and mRNAs encoding SQT
PARP-1 cleavage (primary hepatocytes [5]): did not
nature of combination effect with sorafenib (Hep3B cells [6]; SQT-PUMA-BH3 68 pM or SQT-Bad-BH3 550pM): synergistic effect
apoptosis (YOYO-3), combination with sorafenib vs sorafenib alone (Hep3B cells [6]; SQT-PUMA-BH3 68 pM or SQT-Bad-BH3 550pM in LNPs, increasing sorafenib tosylate): increased apoptosis of the liver cells as compared to treatment with sorafenib alone
apoptosis in combination with sorafenib [7]: neither SQT-BH3 construct, in combination with sorafenib, caused apoptosis
apoptosis (YOYO-3) in combination with either siMCL1 or sorafenib (Hep3B cells [8]): led to a marked increase in apoptosis as compared to treatment with the SQT-BH3 construct in combination with non-targeting siRNA or PBS; also recorded: synergistic pro-apoptotic effect
apoptosis (caspase 3/7) in combination with siMCL1, sorafenib or controls (primary hepatocytes [9]): did not lead to increased apoptosis as compared to treatment with the control SQT-dummy construct

B3: SQT-Bim-BH3: mRNA (SEQ ID NO: 50, FLAG) encoding SQT scaffold with Bim BH3 domain in N-terminus (nucleic acid)
chain: ATGATCCCAAGAGACATGCGCCCCGAAATTTGGATCGCCCAGGAGCTCAGACGCATCGGAGATGAATTCAACGCATACTACGCTCGGCGGGGACTCTCAGAAGCGAAGCCTGCCACCCCCGAAATCCAGGAAATCGTCGACAAGGTCAAGCCGCAGCTTGAGGAAAAGACCAACGAGACTTACGGAAAACTGGAGGCCGTGCAGTATAAGACCCAAGTGTTGGCCTCCACCAACTACTACATTAAGGTCCGCGCCGGCGATAACAAGTACATGCACCTGAAGGTGTTCAATGGTCCTCCGGGACAGAACGCGGACAGGGTGCTGACTGGCTACCAAGTGGACAAGAACAAGGACGACGAGCTGACGGGCTTCGACTACAAGGATGATGATGACAAA
modifications: FLAG tag; Synthetic SQT-BIM-BH3 mRNA sequence with FLAG epitope tag
cell death of transfected cells (HeLa cells [2]; from anti-FLAG and anti-GFP Western blotting): underwent cell death
interaction with BCL-XL by co-immunoprecipitation (BCL-XL): able interact
interaction with BCL-2 by co-immunoprecipitation (BCL-2): to a lesser extent
co-immunoprecipitation of MCL-1 (MCL-1): able to co-immunoprecipitate
cell death [10]: caused rapid cell death almost immediately following transfection
cell death [11]: caused rapid cell death almost immediately following transfection; also recorded: underwent cell death almost immediately following transfection
cell morphology [11]: rounded-up cell morphology that is characteristic of apoptotic cells
cell killing (YOYO-3) (Hep3B cells [4]; four-fold lower concentration): induced cell killing in Hep3B cells more efficiently than SQT-PUMA-BH3
apoptosis and cell death (YOYO-3) (Hep3B cells [4]): both induced apoptosis and cell death; also recorded: kills Hep3B cells at higher concentrations
cell death (YOYO3 staining) (HepG2 cells): lead to cell death; also recorded: kills HepG2 cells
efficacy and timing of cell death, comparison (HepG2 cells): induced cell death with an increase in both efficacy and timing compared to SQT-PUMA-BH3
PARP-1 cleavage (primary hepatocytes [5]): also induced PARP-1 cleavage in primary hepatocytes
apoptosis (YOYO-3 dye uptake and fluorescence) as a function of time (primary hepatocytes [5]; MC3-LNP-formulated): induce apoptosis
efficiency of cell killing (HeLa cells [12]): killed both HeLa cells and Hep3B cells with greater efficiency than SQT-PUMA-BH3
efficiency of cell killing (Hep3B cells [13]; Hep3B cells, approximately 0.78 ng mRNA): killed both HeLa cells and Hep3B cells with greater efficiency than SQT-PUMA-BH3
cell killing, dose-response curve (Hep3B cells [13]; Hep3B, 12 hours after transfection, L2K lipid nanoparticles): more efficient cell killing by SQT-Bim-BH3 at low doses
